Measurements published in patent US20190241648A1 (STATEN BIOTECHNOLOGY B V, published 2019).
Ends that are not written are not given here.

How the values were obtained:
Experiment in all cases: peptide microarray
ApoC3 peptide … E70G = target: T1, ApoC3 peptide … E70G (human, not fully specified (bridges); also: cyclic constrained)
T1 peptide: DKFSEFWDLDPGV
Outline: (§1)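 ApoC3 peptide microarrays incubated with antibody samples and then stained with goat anti-human IgG (Fc) DyLight680 plus anti-HA DyLight800 control antibody. Scanned at intensity 7/7 (red/green); a secondary-only prestain checked for background, and framing HA peptides served as quality control.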

ApoC3 peptide … D68W = ApoC3 peptide … D68W (human, cyclic constrained)
Outline: as §1

ApoC3 peptide … F61I = target: T2, ApoC3 peptide … F61I (human, cyclic constrained)
T2 peptide: DKISEFWDLDPEV
Outline: as §1

ApoC3 peptide … L67Y = target: T3, ApoC3 peptide … L67Y (human, not fully specified (bridges); also: cyclic constrained)
T3 peptide: DKFSEFWDYDPEV
Outline: as §1

ApoC3 peptide … D59R = target: T4, ApoC3 peptide … D59R (human, cyclic constrained)
T4 peptide: RKFSEFWDLDPEV
Outline: as §1

ApoC3 peptide … K60N = target: T5, ApoC3 peptide … K60N (human, not fully specified (bridges); also: cyclic constrained)
T5 peptide: DNFSEFWDLDPEV
Outline: as §1

ApoC3 peptide … P69F = target: T6, ApoC3 peptide … P69F (human, not fully specified (bridges); also: cyclic constrained)
T6 peptide: DKFSEFWDLDFEV
Outline: as §1

ApoC3 peptide … E63F = ApoC3 peptide … E63F (human, cyclic constrained)
Outline: as §1

ApoC3 peptide … E63N = ApoC3 peptide … E63N (human, cyclic constrained)
Outline: as §1

ApoC3 peptide … W65R = target: T7, ApoC3 peptide … W65R (human, not fully specified (bridges); also: cyclic constrained, ring type and places not given here)
T7 peptide: DKFSEFRDLDPEV
Outline: as §1

ApoC3 peptide … L67M = target: T8, ApoC3 peptide … L67M (human, not fully specified (bridges); also: cyclic constrained)
T8 peptide: DKFSEFWDMDPEV
Outline: as §1

ApoC3 peptide … D68S = target: T9, ApoC3 peptide … D68S (human, not fully specified; cyclic constrained)
T9 peptide: DKFSEFWDLSPEV
Outline: as §1

ApoC3 peptide … W65P = target: T10, ApoC3 peptide … W65P (human, not fully specified (bridges); also: cyclic constrained, ring type and places not given here)
T10 peptide: DKFSEFPDLDPEV
Outline: as §1

ApoC3 peptide … D66G = target: T11, ApoC3 peptide … D66G (human, not fully specified (bridges); also: cyclic constrained)
T11 peptide: DKFSEFWGLDPEV
Outline: as §1

ApoC3 peptide … D68R = target: T12, ApoC3 peptide … D68R (human, cyclic constrained)
T12 peptide: DKFSEFWDLRPEV
Outline: as §1

ApoC3 peptide … K60A = target: T13, ApoC3 peptide … K60A (human, not fully specified (bridges); also: cyclic constrained)
T13 peptide: DAFSEFWDLDPEV
Outline: as §1

ApoC3 peptide … E70M = target: T14, ApoC3 peptide … E70M (human, not fully specified (bridges); also: cyclic constrained)
T14 peptide: DKFSEFWDLDPMV
Outline: as §1

ApoC3 peptide … D66Y = target: T15, ApoC3 peptide … D66Y (human, not fully specified (bridges); also: cyclic constrained)
T15 peptide: DKFSEFWYLDPEV
Outline: as §1

ApoC3 peptide … V71S = ApoC3 peptide … V71S (human, cyclic constrained)
Outline: as §1

ApoC3 peptide … D66R = target: T16, ApoC3 peptide … D66R (human, not fully specified (bridges); also: cyclic constrained)
T16 peptide: DKFSEFWRLDPEV
Outline: as §1

ApoC3 peptide … W65N = target: T17, ApoC3 peptide … W65N (human, not fully specified (bridges); also: cyclic constrained, ring type and places not given here)
T17 peptide: DKFSEFNDLDPEV
Outline: as §1

ApoC3 peptide … F64V = target: T18, ApoC3 peptide … F64V (human, not fully specified (bridges); also: cyclic constrained)
T18 peptide: DKFSEVWDLDPEV
Outline: as §1

ApoC3 peptide … P69M = target: T19, ApoC3 peptide … P69M (human, not fully specified (bridges); also: cyclic constrained)
T19 peptide: DKFSEFWDLDMEV
Outline: as §1

ApoC3 peptide … D66N = target: T20, ApoC3 peptide … D66N (human, not fully specified (bridges); also: cyclic constrained)
T20 peptide: DKFSEFWNLDPEV
Outline: as §1

ApoC3 peptide … F61R = target: T21, ApoC3 peptide … F61R (human, not fully specified (bridges); also: cyclic constrained)
T21 peptide: DKRSEFWDLDPEV
Outline: as §1

ApoC3 peptide … E70T = target: T22, ApoC3 peptide … E70T (human, cyclic constrained)
T22 peptide: DKFSEFWDLDPTV
Outline: as §1

ApoC3 peptide … K60G = target: T23, ApoC3 peptide … K60G (human, not fully specified (bridges); also: cyclic constrained)
T23 peptide: DGFSEFWDLDPEV
Outline: as §1

ApoC3 peptide … L67I = target: T24, ApoC3 peptide … L67I (human, not fully specified (bridges); also: cyclic constrained)
T24 peptide: DKFSEFWDIDPEV
Outline: as §1

ApoC3 peptide … S62W = ApoC3 peptide … S62W (human, cyclic constrained)
Outline: as §1

ApoC3 peptide … F61P = target: T25, ApoC3 peptide … F61P (human, not fully specified (bridges); also: cyclic constrained)
T25 peptide: DKPSEFWDLDPEV
Outline: as §1

ApoC3 peptide … D66L = target: T26, ApoC3 peptide … D66L (human, not fully specified (bridges); also: cyclic constrained)
T26 peptide: DKFSEFWLLDPEV
Outline: as §1

ApoC3 peptide … P69Q = ApoC3 peptide … P69Q (human, cyclic constrained)
Outline: as §1

ApoC3 peptide … D68N = target: T27, ApoC3 peptide … D68N (human, cyclic constrained)
T27 peptide: DKFSEFWDLNPEV
Outline: as §1

ApoC3 peptide … D66M = target: T28, ApoC3 peptide … D66M (human, not fully specified (bridges); also: cyclic constrained)
T28 peptide: DKFSEFWMLDPEV
Outline: as §1

ApoC3 peptide … E63L = ApoC3 peptide … E63L (human, cyclic constrained)
Outline: as §1

B1: anti-ApoC3 antibody 6A6 (antibody, V domains shown)
VH: EVQLVESGGGLVQPGGSLRLSCAASGFTFSSYAGRWVRQVPGKGLEWVSSINAGGGSTSYADSVKGRFTISRDNAKNTLYLQMNSLKPEDTAKYYCTQNSYRYWGQGTRVAVSS
VL: DVVLTQTPGSLSVVPGESASISCKASQSLIHTDGKTYLYWLLQKPGQRPQLLIYQVSSHESGVPDRFTGSGSGTDFTLKISGVKAEDAGVYYCAQATYNPRTFGQGTKLEIK
notes: it was detected with goat anti-human IgG (Fc); also called mAb 6A6; llama antibody 6A6
How did the “% of binding to wild-type peptide” value (ApoC3 peptide … E70G) turn out when B1 was run?
Its value is 1.26%.

What about the “% of binding to wild-type peptide” value (ApoC3 peptide … D68W) of the same binder?
The value was 0%.

And the “% of binding to wild-type peptide” value (ApoC3 peptide … F61I)?
Its value is 44.3%.

What about the “% of binding to wild-type peptide” value (ApoC3 peptide … L67Y) of the same binder?
The value was 3.08%.

And the “% of binding to wild-type peptide” value (ApoC3 peptide … D59R)?
The value was 70.2%.

What about the “% of binding to wild-type peptide” value (ApoC3 peptide … K60N) of the same binder?
Its value is 139%.

What about the “% of binding to wild-type peptide” value (ApoC3 peptide … P69F) of the same binder?
Its value is 97.7%.

And the “% of binding to wild-type peptide” value (ApoC3 peptide … E63F)?
The value was 8.5%.

And the “% of binding to wild-type peptide” value (ApoC3 peptide … E63N)?
Its value is 38.8%.

And the “% of binding to wild-type peptide” value (ApoC3 peptide … W65R)?
Its value is 7.71%.

And the “% of binding to wild-type peptide” value (ApoC3 peptide … L67M)?
The value was 43.4%.

And the “% of binding to wild-type peptide” value (ApoC3 peptide … D68S)?
The value was 0.57%.

And the “% of binding to wild-type peptide” value (ApoC3 peptide … W65P)?
The value was 13.8%.

And the “% of binding to wild-type peptide” value (ApoC3 peptide … D66G)?
The value was 0%.

And the “% of binding to wild-type peptide” value (ApoC3 peptide … D68R)?
Its value is 0.66%.

What about the “% of binding to wild-type peptide” value (ApoC3 peptide … K60A) of the same binder?
Its value is 120%.

And the “% of binding to wild-type peptide” value (ApoC3 peptide … E70M)?
Its value is 2.34%.

And the “% of binding to wild-type peptide” value (ApoC3 peptide … D66Y)?
Its value is 0%.

What about the “% of binding to wild-type peptide” value (ApoC3 peptide … V71S) of the same binder?
Its value is 84.7%.

What about the “% of binding to wild-type peptide” value (ApoC3 peptide … D66R) of the same binder?
The value was 0%.

What about the “% of binding to wild-type peptide” value (ApoC3 peptide … W65N) of the same binder?
The value was 56.5%.

And the “% of binding to wild-type peptide” value (ApoC3 peptide … F64V)?
Its value is 86%.

What about the “% of binding to wild-type peptide” value (ApoC3 peptide … P69M) of the same binder?
Its value is 44.1%.

What about the “% of binding to wild-type peptide” value (ApoC3 peptide … D66N) of the same binder?
Its value is 0%.

What about the “% of binding to wild-type peptide” value (ApoC3 peptide … F61R) of the same binder?
The value was 35.6%.

And the “% of binding to wild-type peptide” value (ApoC3 peptide … E70T)?
Its value is 1.55%.

What about the “% of binding to wild-type peptide” value (ApoC3 peptide … K60G) of the same binder?
The value was 117%.

And the “% of binding to wild-type peptide” value (ApoC3 peptide … L67I)?
The value was 105%.

And the “% of binding to wild-type peptide” value (ApoC3 peptide … S62W)?
The value was 4.78%.

What about the “% of binding to wild-type peptide” value (ApoC3 peptide … F61P) of the same binder?
Its value is 79%.

And the “% of binding to wild-type peptide” value (ApoC3 peptide … D66L)?
The value was 0%.

And the “% of binding to wild-type peptide” value (ApoC3 peptide … P69Q)?
Its value is 28.2%.

What about the “% of binding to wild-type peptide” value (ApoC3 peptide … D68N) of the same binder?
Its value is 0%.

And the “% of binding to wild-type peptide” value (ApoC3 peptide … D66M)?
Its value is 0.08%.

And the “% of binding to wild-type peptide” value (ApoC3 peptide … E63L)?
The value was 10.1%.
